These results are taken from publication PMC3382582, “The Estrogen-Related Receptor Alpha Upregulates Secretin Expressions in Response to Hypertonicity and Angiotensin II Stimulation”.

This data set concerns the target T1, ERRα (in vitro translated) (Mus musculus, UniProt O08580 1-422).
T1 sequence: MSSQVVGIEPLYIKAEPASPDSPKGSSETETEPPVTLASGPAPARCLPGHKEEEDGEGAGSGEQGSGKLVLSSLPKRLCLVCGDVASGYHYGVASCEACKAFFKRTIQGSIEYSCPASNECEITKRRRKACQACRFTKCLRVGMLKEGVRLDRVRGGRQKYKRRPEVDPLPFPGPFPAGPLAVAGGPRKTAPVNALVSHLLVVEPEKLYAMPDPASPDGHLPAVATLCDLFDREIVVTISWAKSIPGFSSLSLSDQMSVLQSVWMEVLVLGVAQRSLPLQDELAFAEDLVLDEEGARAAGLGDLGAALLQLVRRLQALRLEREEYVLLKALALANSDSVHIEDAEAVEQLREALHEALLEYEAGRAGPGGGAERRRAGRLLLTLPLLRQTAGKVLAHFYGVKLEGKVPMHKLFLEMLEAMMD
Put plainly: EMSA; 2.5 mM MgCl2, poly(dI:dC); EMSA: 10 mM Tris pH 7.5, 50 mM NaCl, 2.5 mM MgCl2, 0.5 mM DTT, 4% glycerol, 2 µg poly(dI:dC), 1 pmol probe, 20 µl, room temperature 15 min; 5% polyacrylamide gel. The note with it: protein: ivt; label: 32P 5' end label (T4 PNK); strands as printed are 17 and 16 nt; S6 lacks one G relative to the exact complement of S5 (possible misprint). (In EMSA bound probe runs differently from free probe, usually more slowly.)

B1: GS-ERRα (SCT promoter ERE-half site oligo) (dsDNA)
DNA 1: GCCCCTGACCTTCCCGG
DNA 2: CCGGGAAGGTCAGGGC
On to B1, for which the binding result is listed as “binds”.
